What was measured:
[1] = biological target: Ste2p R58L, S95Y (Saccharomyces cerevisiae) (UniProt D6VTK4); experiment: flow cytometry on cells
[2] = biological target: Ste2p R58Q, S95Y (Saccharomyces cerevisiae) (UniProt D6VTK4); experiment: flow cytometry on cells
Chain of Ste2p R58Q, S95Y (Saccharomyces cerevisiae) (D6VTK4 1-303 R58Q/S95Y): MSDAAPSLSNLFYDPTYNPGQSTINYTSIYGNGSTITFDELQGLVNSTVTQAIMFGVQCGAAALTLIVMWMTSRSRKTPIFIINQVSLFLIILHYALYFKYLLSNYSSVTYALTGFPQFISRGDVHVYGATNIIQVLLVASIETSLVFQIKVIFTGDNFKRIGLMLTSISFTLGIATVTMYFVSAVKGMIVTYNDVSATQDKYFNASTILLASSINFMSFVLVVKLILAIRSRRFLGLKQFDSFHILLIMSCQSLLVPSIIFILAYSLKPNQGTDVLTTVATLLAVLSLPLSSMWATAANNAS

Chain of Ste2p R58L, S95Y (Saccharomyces cerevisiae) (D6VTK4 1-303 R58L/S95Y): as the sequence (D6VTK4 1-303 R58Q/S95Y) above, with Q58L counted along it

## [K^7(NBD),Nle^12] α-factor (peptide)
[1]
  ligand binding at 300 nM ligand, % of wild-type levels (% of wild-type levels): 13.7
[2]
  ligand binding at 300 nM ligand, % of wild-type levels (% of wild-type levels): 16.8

Source: PMC4405178 (Biochemistry, 2015)
